Earlier results, collected in paper PMC11379947 (Nature Communications, 2024).

Target: T1, ICOS (Homo sapiens, UniProt Q9Y6W8)
T1 sequence (Q9Y6W8 21-199): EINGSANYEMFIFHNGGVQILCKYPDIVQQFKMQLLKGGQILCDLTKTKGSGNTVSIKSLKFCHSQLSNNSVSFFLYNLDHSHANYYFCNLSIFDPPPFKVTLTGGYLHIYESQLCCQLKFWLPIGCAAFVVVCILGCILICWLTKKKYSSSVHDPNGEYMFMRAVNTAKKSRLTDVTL
Conditions: read-out: KD of natural ICOS ligand; cited from earlier work

B1: ICOSL: the natural ICOS ligand (protein, UniProt O75144 19-302, looked up)
ICOS ligand: DTQEKEVRAMVGSDVELSCACPEGSRFDLNDVYVYWQTSESKTVVTYHIPQNSSLENVDSRYRNRALMSPAGMLRGDFSLRLFNVTPQDEQKFHCLVLSQSLGFQEVLSVEVTLHVAANFSVPVVSAPHSPSQDELTFTCTSINGYPRPNVYWINKTDNSLLDQALQNDTVFLNMRGLYDVVSVLRIARTPSVNIGCCIENVLLQQNLTVGSQTGNDIGERDKITENPVSTGEKNAATWSILAVLCLLVVVAVAIGWVCRDRCLQHSYAGAWAVSPETELTGHV
- Kd: 722 nM
